Measurements from paper PMC10760632, “Characterization of the SF3B1–SUGP1 interface reveals how numerous cancer mutations cause mRNA missplicing” (Genes & Development, 2023).

Target: T1, SF3B core complex (human, UniProt O75533 453-1304; Q15393 1-1217; Q9BWJ5 1-86; Q7RTV0 1-98)
T1 construct: SF3B1 C-terminal HEAT domain, residues 453-1304; SF3B3, residues 1-1217; SF3B5, residues 1-86; PHF5A, residues 1-98; SF3B3 carries an N-terminal His6 and a TEV protease cleavage site; no cleavage step is described in the purification; also called SF3B complex; source: Tni insect cells (baculovirus), coexpressed, purified (Ni-NTA, Superdex 200 gel filtration); copies: + + +
Experiment: SEC; purified SF3B complex and DHX15 (113–795)–SUGP1 (433–645) heterodimer mixed at a molar ratio of 1:5, overnight at 4°C, Superose 6 Increase 10/300 in 20 mM HEPES pH 7.9, 300 mM KCl, 5% glycerol, 5 mM DTT; complex fractions rerun and peak analysed by SDS-PAGE
Settings: both partners purified

T1 sequence (O75533 453-1304, chain 1 of 4): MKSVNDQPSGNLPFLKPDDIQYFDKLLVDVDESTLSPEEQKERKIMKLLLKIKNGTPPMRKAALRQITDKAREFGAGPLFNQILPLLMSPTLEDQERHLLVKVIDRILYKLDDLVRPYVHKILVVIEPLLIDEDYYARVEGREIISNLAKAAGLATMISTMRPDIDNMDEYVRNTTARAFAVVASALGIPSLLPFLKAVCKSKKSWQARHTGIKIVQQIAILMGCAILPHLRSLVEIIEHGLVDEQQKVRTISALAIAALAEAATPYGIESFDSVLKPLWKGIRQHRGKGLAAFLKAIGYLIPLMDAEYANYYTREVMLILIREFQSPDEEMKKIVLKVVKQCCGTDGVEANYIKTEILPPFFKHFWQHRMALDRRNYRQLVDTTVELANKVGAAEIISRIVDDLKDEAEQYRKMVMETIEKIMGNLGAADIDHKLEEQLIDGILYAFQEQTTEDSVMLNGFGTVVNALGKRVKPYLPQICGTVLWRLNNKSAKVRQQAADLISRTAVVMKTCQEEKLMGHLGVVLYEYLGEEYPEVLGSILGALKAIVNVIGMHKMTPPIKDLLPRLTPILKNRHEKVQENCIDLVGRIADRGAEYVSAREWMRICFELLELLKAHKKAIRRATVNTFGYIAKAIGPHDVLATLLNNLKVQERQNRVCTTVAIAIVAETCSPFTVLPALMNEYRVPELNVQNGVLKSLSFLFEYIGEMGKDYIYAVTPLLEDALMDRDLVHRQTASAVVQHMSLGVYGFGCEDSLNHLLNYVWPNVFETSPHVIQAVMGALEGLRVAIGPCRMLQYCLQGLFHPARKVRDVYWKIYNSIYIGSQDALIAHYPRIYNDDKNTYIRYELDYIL
T1 sequence (Q15393 whole entry, chain 2 of 4, the tested form may be a part): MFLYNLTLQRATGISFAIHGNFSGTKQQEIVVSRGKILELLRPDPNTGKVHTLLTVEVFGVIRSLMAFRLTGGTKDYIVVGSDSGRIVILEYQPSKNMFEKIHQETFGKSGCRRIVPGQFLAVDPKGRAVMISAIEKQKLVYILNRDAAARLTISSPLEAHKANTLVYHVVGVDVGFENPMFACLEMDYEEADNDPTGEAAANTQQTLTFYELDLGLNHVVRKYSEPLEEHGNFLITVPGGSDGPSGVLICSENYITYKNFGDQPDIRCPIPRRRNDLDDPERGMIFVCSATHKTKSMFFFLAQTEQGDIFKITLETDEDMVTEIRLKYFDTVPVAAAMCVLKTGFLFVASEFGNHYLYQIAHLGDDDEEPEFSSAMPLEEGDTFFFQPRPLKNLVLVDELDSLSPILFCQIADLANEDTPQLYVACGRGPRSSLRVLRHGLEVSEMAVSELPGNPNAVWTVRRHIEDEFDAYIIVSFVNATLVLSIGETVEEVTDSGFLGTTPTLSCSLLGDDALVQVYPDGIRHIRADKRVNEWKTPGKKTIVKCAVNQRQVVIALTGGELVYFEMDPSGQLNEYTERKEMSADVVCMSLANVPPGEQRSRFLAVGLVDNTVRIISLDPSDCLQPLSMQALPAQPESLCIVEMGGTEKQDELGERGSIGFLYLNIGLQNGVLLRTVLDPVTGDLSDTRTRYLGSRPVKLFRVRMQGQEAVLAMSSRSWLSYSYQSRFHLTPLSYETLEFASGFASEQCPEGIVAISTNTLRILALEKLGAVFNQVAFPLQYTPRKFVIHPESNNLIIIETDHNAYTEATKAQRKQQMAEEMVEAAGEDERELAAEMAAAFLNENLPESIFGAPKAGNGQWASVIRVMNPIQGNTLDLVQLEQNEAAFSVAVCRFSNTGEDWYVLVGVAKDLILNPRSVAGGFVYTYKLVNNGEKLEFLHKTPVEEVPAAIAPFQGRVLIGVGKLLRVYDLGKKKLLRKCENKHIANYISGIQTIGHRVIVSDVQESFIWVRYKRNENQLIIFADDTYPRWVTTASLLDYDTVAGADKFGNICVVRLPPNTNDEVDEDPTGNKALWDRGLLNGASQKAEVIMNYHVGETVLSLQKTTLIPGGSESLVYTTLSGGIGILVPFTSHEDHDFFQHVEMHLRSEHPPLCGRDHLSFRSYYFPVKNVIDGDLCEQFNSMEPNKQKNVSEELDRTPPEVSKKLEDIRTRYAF
T1 sequence (Q9BWJ5 whole entry, chain 3 of 4, the tested form may be a part): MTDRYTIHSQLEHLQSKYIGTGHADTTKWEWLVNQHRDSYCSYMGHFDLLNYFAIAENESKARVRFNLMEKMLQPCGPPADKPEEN
T1 sequence (Q7RTV0 1-98, chain 4 of 4): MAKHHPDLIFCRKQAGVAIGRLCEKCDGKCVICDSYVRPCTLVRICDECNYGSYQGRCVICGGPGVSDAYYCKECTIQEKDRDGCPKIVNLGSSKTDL

B1: DHX15 (113–795)–SUGP1 (433–645) heterodimer (complex, human)
chain 1: QCINPFTNLPHTPRYYDILKKRLQLPVWEYKDRFTDILVRHQSFVLVGETGSGKTTQIPQWCVEYMRSLPGPKRGVACTQPRRVAAMSVAQRVADEMDVMLGQEVGYSIRFEDCSSAKTILKYMTDGMLLREAMNDPLLERYGVIILDEAHERTLATDILMGVLKEVVRQRSDLKVIVMSATLDAGKFQIYFDNCPLLTIPGRTHPVEIFYTPEPERDYLEAAIRTVIQIHMCEEEEGDLLLFLTGQEEIDEACKRIKREVDDLGPEVGDIKIIPLYSTLPPQQQQRIFEPPPPKKQNGAIGRKVVVSTNIAETSLTIDGVVFVIDPGFAKQKVYNPRIRVESLLVTAISKASAQQRAGRAGRTRPGKCFRLYTEKAYKTEMQDNTYPEILRSNLGSVVLQLKKLGIDDLVHFDFMDPPAPETLMRALELLNYLAALNDDGDLTELGSMMAEFPLDPQLAKMVIASCDYNCSNEVLSITAMLSVPQCFVRPTEAKKAADEAKMRFAHIDGDHLTLLNVYHAFKQNHESVQWCYDNFINYRSLMSADNVRQQLSRIMDRFNLPRRSTDFTSRDYYINIRKALVTGYFMQVAHLERTGHYLTVKDNQVVQLHPSTVLDHKPEWVLYNEFVLTTKNYIRTCTDIKPEWLVKIAPQYYDMSNFPQCEAKRQLDRIIAKLQSKEYSQY
chain 2: GVTELSDAQKKQLKEQQEMQQMYDMIMQHKRAMQDMQLLWEKAVQQHQHGYDSDEEVDSELGTWEHQLRRMEMDKTREWAEQLTKMGRGKHFIGDFLPPDELEKFMETFKALKEGREPDYSEYKEFKLTVENIGYQMLMKMGWKEGEGLGSEGQGIKNPVNKGTTTVDGAGFGIDRPAELSKEDDEYEAFRKRMMLAYRFRPNPLNNPRRPYY
notes: DHX15 (DEAH-box helicase 15), residues 113-795, lacks the N-terminal unstructured region; DHX15 was fused with N-terminal His6, MBP and a TEV protease cleavage site; also called DHX15–SUGP1; DHX15–SUGP1 heterodimer; source: Tni insect cells (baculovirus), coexpressed, purified as in Zhang et al. 2022a
Q: Does B1 bind?
A: Result: binds
